The values below come from paper doi:10.1101/2024.05.03.592356 (bioRxiv, 2024).

The data set concerns the molecule itself. In words: crystal structure.

B1: RdmB, N-terminal His6-tagged (enzyme, Streptomyces purpurascens)
chain: MSSSSPGEPLEPTDQDLDVLLKNLGNLVTPMALRVAATLRLVDHLLAGADTLAGLADRTDTHPQALSRLVRHLTVVGVLEGGEKQGRPLRPTRLGMLLADGHPAQQRAWLDLNGAVSHADLAFTGLLDVVRTGRPAYAGRYGRPFWEDLSADVALADSFDALMSCDEDLAYEAPADAYDWSAVRHVLDVGGGNGGMLAAIALRAPHLRGTLVELAGPAERARRRFADAGLADRVTVAEGDFFKPLPVTADVVLLSFVLLNWSDEDALTILRGCVRALEPGGRLLVLDRADVEGDGADRFFSTLLDLRMLTFMGGRVRTRDEVVDLAGSAGLALASERTSGSTTLPFDFSILEFTAVSEEAAPAAQASEALPAQE
As for B1, the binding result is “binds”.
